The results in this text go back to patent US20250129165A1.

Assay [1] concerns the target human BTN3A as expressed on human cells (PBMCs, Daudi Burkitt's lymphoma cells, AML cells, monocytes) (human) (UniProt O00481). The experiment in a line: cell-based or functional assay.
Assay [2] has the same target. The experiment in a line: flow cytometry on human PBMCs.
For assay [3], the target named is cynomolgus BTN3A as expressed on cynomolgus PBMCs (cynomolgus). The experiment in a line: flow cytometry on cynomolgus PBMCs. (In general: Flow cytometry measures light scatter and fluorescence of single cells or particles in a stream.)
The target of assay [4] is human BTN3A as expressed on human cells (PBMCs, Daudi Burkitt's lymphoma cells, AML cells, monocytes) (human) (UniProt O00481). Nature of the assay: flow cytometry on Daudi Burkitt's lymphoma cells.
Assay [5] concerns the target human BTN3A1 antigen (Sino Biological cat. no. 15973-H08H) (human) (UniProt O00481). Nature of the assay: SPR, Biacore T200 multi-cycle kinetics; antibody captured on Protein A, BTN3A1 as analyte.

Chain of human BTN3A1 antigen (Sino Biological cat. no. 15973-H08H) (human) (O00481 30-254 limits assumed): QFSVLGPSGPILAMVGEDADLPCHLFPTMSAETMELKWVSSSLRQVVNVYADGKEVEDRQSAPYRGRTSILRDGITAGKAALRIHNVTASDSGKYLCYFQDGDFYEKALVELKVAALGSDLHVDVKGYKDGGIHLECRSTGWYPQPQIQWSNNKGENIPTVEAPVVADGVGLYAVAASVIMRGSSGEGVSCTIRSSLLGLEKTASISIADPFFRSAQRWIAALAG

In general, EC50 refers to the concentration needed to bring the measured effect to its halfway point. Broadly, the Kd is the constant that tells how readily two partners part at equilibrium. High values mean lower affinity, low ones higher affinity. Take mAb 20.1, parent murine antibody: in assay [1], the Functional assay (AML resistant) (γδT cell-based, EC50, µg/mL) is 0.18 µg/mL; the Functional assay (AML sensitive) (γδT cell-based, EC50, µg/mL) came to 0.05 µg/mL; the Functional assay (Daudi) (γδT cell-based, EC50, µg/mL) was found to be 0.02 µg/mL; the Vγ9Vδ2 T cell degranulation with PBMCs from C. burnetii patients, 20.1 at 10 µg/ml worked out at 24.1%. Besides, in assay [1], the Vγ9Vδ2 T cell degranulation with PBMCs from healthy donors, 20.1 at 10 µg/ml turned out to be 3.24%; the Vγ9Vδ2 T cell degranulation, Mean % CD107+ cells, monocytes infected with C. burnetii Guiana, 20.1 at 10 µg/ml (isotype 37.23) (% CD107+ cells) is 71.5; the Vγ9Vδ2 T cell degranulation, Mean % CD107+ cells, monocytes infected with C. burnetii NM1, 20.1 at 10 µg/ml (isotype 42.1) (% CD107+ cells) is 67.2; the Vγ9Vδ2 T cell degranulation, Mean % CD107+ cells, non stimulated monocytes, 20.1 at 10 µg/ml (isotype 8.59) (% CD107+ cells) turned out to be 45.8. Besides, the concentration giving a half-maximal response (EC50) in assay [2] amounted to 3.02 µg/mL. In assay [3], this substance yielded an EC50 of 4.06 µg/mL. Besides, the EC50 in assay [4] stood at 1.19 µg/mL. In assay [5], this substance yielded a Kd of 0.234 nM.
